Data from patent publication US7229788B1, “Protease susceptibility II” (The University of Sydney, priority 1998, dated 2007).
Entries after “also recorded” stand apart in the source; their conditions may differ.

Experiments:
[1] = molecular target: gelatinase A (Homo sapiens, UniProt P08253)
[2] = test system: human serum; conditions: for effect of protease inhibitor on serum degradation of SHEL (amount of full-length SHEL): SHEL incubated with serum at 37° C., SDS-PAGE, 0.5 mM Pefabloc SC, 5 mM PMSF, 25 mM EDTA, Pefabloc PK, 1 unit Hirudin; for effect of peptide on degradation of SHEL by serum (full-length SHEL, SDS-PAGE, densitometry): molar excess of peptide to SHEL (100:1), preincubated 37° C., SHEL and SHELδ26A
Description: Human serum was obtained from fresh intravenous blood, centrifuged at 2000 g to remove red blood cells and then allowed to clot before serum was removed. Aliquots (20 μl) were stored at −20° C. and thawed when needed. 15 μg tropoelastin in 50 mM sodium phosphate buffer, pH 7.8 was incubated with 0.5 μl serum in a 20 μl reaction for between 1 and 18 hr at 37° C. […] All inhibitors were dissolved in water except PMSF which was dissolved in isopropanol. Reactions were analysed by 8% SDS-PAGE. Serum-digested peptides to be used for sequencing were purified by the addition of 1.5 volumes n-propanol, followed by 2.5 volumes n-butanol and stirred overnight. The organic solvents were removed by rotary evaporation and peptides resuspended in 50 mM sodium phosphate buffer, pH 7.8.
Various dilutions of serum from ½– 1/50 in 50 mM sodium phosphate pH7.8 were used and both SHEL and SHELδ26A were used for each experiment.
Experiments were conducted in parallel with S-GAL using identical procedures (see above). Both SHEL and SHELδ26A were used. Each reaction was analysed by 10% SDS-PAGE. Gels were scanned by densitometry and the volume of full-length SHEL calculated as follows. Scanning densitometry of stained gels was performed using the Molecular Dynamics Personal Densitometer. Images were analysed and quantitated using ImageQuant software (Version 3.2, Molecular Dynamics USA).
10 mg/ml SHEL in 50 mM sodium phosphate pH7.8 and 150 mM NaCl was allowed to coacervate at 37° C. until cloudy before adding human plasma kallikrein (6×10^−4U), thrombin (1U), plasmin (1.5×10^−5U), trypsin (2×10^−3U), HLE (1.6×10^−3U) and serum (0.75 μl) for one hour. Control reactions were performed at 16° C. for three hours. Extent of proteolysis was monitored by SDS-PAGE.

[3] = molecular target: T1, kallikrein (Homo sapiens, UniProt P03952); type: biochemical
T1 construct: from tissue; host or cells: human serum
T1 sequence (P03952 20-638): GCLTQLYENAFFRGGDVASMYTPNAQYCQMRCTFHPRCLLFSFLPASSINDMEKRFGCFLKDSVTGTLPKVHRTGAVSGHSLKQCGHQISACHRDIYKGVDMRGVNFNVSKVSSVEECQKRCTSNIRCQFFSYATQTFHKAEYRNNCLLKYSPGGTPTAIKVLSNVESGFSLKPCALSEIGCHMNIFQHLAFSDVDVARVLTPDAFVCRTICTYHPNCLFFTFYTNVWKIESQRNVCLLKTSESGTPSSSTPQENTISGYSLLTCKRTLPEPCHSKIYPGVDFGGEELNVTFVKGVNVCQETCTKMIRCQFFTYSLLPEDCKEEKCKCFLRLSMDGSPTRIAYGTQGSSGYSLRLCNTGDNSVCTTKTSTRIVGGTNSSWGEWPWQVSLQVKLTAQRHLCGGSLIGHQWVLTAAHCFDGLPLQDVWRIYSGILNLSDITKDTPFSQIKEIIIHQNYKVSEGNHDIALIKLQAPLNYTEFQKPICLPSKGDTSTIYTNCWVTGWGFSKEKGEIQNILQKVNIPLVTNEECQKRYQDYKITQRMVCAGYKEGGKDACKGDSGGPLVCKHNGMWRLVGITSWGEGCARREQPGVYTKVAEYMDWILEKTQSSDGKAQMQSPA

[4] = molecular target: T2, human thrombin (Homo sapiens, UniProt P00734); test: Thrombin digestion of SHEL, SDS-PAGE; type: biochemical; conditions: for effect of peptide on degradation of SHEL by thrombin (full-length SHEL, SDS-PAGE, densitometry): molar excess of peptide to SHEL (100:1), SHEL and SHELδ26A
T2 construct: purchased Sigma
Description: (§1) A range of enzyme concentrations was originally used to determine the optimal amount for subsequent experiments. Thrombin (0.01–1U), human plasma kallikrein (3×10^−4 to 3×10^−3U), human plasmin (7×10^−5 to 4×10^−7U), bovine trypsin (5×10^−4 to 4×10^−3U), and human leukocyte elastase (1.6×10^−4 to 3.2×10^−3U) were added to 10 μg SHEL or SHELδ26A in 50 mM sodium phosphate buffer pH 7.8 in a total volume of 20 μl. All reactions were performed at 37° C. for one hour. Gelatinase A and B were activated using 0.8 mM APMA at 37° C. for 30 minutes (gelatinase A) or 37° C. for 45 minutes (gelatinase B). Gelatinase A (4×10^−3−4×10^−2) and gelatinase B (2×10^−5−1×10^−4) was added to […] SHEL or SHELd26A in a total volume of […]. Gelatinase B reactions were performed in the presence of 0.75 mM APMA. The degradation profile was analysed by 8, 10 or 12% SDS-PAGE.
(§2) Both SHEL and SHELδ26A were used. Each reaction was analysed by 10% SDS-PAGE.
(§3) Extent of proteolysis was monitored by SDS-PAGE.
Cleavage of GST-SHEL bound to glutathione agarose was performed by washing and resuspending beads in 1× thrombin cleavage buffer (50 mM Tris-HCl pH8.0, 150 mM NaCl, 2.5 mM CaCl2) and adding human thrombin (Sigma) from 0.1 to 1% (w/v) thrombin:fusion protein at 25° C. for one hour (Smith and Johnston 1988). Soluble bacterial lysates used as substrate were incubated similarly with 1× thrombin cleavage buffer, added from a 10× stock. GST (26 kDa) was evident on beads by SDS-PAGE but SHEL could not be identified in the supernatant in numerous experiments. To determine whether thrombin was degrading SHEL, the entire cell lysate was subject to cleavage with increasing concentrations of thrombin. […] GST was clearly present. However, with 0.01U thrombin a band at approximately 64 kDa could be discerned which may represent SHEL although this was not nearly as intense as the GST band.

[5] = molecular target: T3, bovine trypsin (Bos taurus, UniProt P00760); test: Trypsin digestion of SHEL, SDS-PAGE; type: biochemical; conditions: molar excess of peptide to SHEL (100:1); SHEL and SHELδ26A
T3 construct: purchased Boehringer-Mannheim
T3 sequence (P00760 24-246): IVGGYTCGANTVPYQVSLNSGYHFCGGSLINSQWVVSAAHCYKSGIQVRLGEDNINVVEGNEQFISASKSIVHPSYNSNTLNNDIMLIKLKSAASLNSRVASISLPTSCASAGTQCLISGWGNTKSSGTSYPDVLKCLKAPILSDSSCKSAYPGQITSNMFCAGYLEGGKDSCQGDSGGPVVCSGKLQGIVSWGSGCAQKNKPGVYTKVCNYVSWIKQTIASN
Description: as §1, §2, §3

[6] = molecular target: T4, human plasmin (Homo sapiens, UniProt P00747); test: Plasmin digestion of SHEL, SDS-PAGE; type: biochemical; conditions: molar excess of peptide to SHEL (100:1); SHEL and SHELδ26A
T4 construct: purchased Sigma
T4 sequence (P00747 97-810): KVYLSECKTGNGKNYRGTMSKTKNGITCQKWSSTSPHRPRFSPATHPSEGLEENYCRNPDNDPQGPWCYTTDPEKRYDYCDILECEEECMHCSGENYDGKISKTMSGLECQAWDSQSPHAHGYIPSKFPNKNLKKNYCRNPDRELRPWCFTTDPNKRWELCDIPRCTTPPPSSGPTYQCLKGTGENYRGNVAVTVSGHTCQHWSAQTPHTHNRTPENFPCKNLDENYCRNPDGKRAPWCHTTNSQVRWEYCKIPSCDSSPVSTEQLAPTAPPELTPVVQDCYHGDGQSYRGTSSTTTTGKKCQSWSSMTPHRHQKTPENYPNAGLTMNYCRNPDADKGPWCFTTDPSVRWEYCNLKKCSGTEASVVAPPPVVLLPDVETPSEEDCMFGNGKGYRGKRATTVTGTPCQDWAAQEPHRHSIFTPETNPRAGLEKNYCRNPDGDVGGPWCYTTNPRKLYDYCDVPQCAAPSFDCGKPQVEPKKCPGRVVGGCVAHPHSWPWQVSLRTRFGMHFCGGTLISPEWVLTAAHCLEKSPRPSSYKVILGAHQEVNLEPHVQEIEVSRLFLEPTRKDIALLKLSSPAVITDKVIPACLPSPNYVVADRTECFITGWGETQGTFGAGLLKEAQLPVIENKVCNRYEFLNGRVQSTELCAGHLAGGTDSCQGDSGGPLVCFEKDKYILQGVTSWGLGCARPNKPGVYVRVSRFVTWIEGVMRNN
Description: as §1, §2, §3

[7] = molecular target: T5, human leukocyte elastase (HLE) (Homo sapiens, UniProt P08246); test: HLE digestion of SHEL, SDS-PAGE; type: biochemical; conditions: molar excess of peptide to SHEL (100:1); SHEL and SHELδ26A
T5 construct: purchased Sigma
T5 sequence (P08246 30-267): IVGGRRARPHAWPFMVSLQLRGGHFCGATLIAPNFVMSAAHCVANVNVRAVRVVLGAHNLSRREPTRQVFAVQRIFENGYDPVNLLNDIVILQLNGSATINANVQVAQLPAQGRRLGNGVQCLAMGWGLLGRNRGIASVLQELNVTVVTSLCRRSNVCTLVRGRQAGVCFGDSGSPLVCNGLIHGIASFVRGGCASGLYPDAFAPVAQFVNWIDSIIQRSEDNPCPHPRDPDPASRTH
Description: as §1, §2, §3

[8] = molecular target: T6, human plasma kallikrein (Homo sapiens, UniProt P03952); test: Kallikrein digestion of SHEL, SDS-PAGE; type: biochemical; conditions: molar excess of peptide to SHEL (100:1); SHEL and SHELδ26A
T6 construct: purchased Sigma
T6 sequence (P03952 20-638): as the sequence (P03952 20-638) above
Description: as §1, §2, §3

Chain of gelatinase A (P08253 110-660): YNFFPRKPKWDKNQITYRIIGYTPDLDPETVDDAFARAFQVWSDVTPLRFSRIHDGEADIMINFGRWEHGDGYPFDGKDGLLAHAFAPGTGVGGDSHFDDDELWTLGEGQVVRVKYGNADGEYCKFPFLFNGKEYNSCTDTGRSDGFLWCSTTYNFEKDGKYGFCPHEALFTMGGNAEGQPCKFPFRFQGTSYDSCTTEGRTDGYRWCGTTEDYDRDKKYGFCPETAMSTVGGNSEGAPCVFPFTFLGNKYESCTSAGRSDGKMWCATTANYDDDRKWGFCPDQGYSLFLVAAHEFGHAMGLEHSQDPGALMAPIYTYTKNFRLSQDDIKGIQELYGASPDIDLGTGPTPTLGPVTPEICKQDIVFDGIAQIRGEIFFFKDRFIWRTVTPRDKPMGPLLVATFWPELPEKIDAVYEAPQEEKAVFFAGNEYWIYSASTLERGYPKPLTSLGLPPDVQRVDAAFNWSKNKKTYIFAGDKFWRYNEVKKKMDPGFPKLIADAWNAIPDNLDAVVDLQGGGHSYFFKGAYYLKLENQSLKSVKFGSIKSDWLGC

Molecule | effect of protease inhibitor on serum degradation of SHEL (amount of full-length SHEL) [2] | effect of peptide on degradation of SHEL by trypsin (full-length SHEL, SDS-PAGE, densitometry) [5] | effect of peptide on degradation of SHEL by plasmin (full-length SHEL, SDS-PAGE, densitometry) [6] | effect of peptide on degradation of SHEL by thrombin (full-length SHEL, SDS-PAGE, densitometry) [4] | effect of peptide on degradation of SHEL by HLE (full-length SHEL, SDS-PAGE, densitometry) [7] | effect of peptide on degradation of SHEL by kallikrein (full-length SHEL, SDS-PAGE, densitometry) [8] | effect of peptide on degradation of SHEL by serum (full-length SHEL, SDS-PAGE, densitometry) [2] | further results
O=C(O)CN(CCN(CC(=O)O)CC(=O)O)CC(=O)O [EDTA] | appeared to promote digestion |  |  |  |  |  |  | effect on 64 kDa zone in gelatin zymogram digested with serum [1]: 64 kDa zone was not observed
O=S(=O)(F)Cc1ccccc1 [PMSF] | protected tropoelastin from cleavage |  |  |  |  |  |  | effect of inhibitor on second cleared zone in SHEL zymogram digested with serum [3]: second cleared zone was not seen
Cl.NCCc1ccc(S(=O)(=O)F)cc1 [Pefabloc SC] | protected tropoelastin from cleavage |  |  |  |  |  |  | 
Hirudin [reference compound] | did not appear to significantly inhibit degradation |  |  |  |  |  |  | inhibition of thrombin degradation of SHEL by inhibitor ([4]; not shown): degradation was inhibited
N-AAKAQLRAAAGLGA-C (KAQLRAAAGLGAGI; listed as Homo sapiens) [SPS-peptide] |  | more full-length SHEL was evident compared with controls | more full-length SHEL was evident compared with controls | more full-length SHEL using thrombin and HLE but to a lesser extent | more full-length SHEL using thrombin and HLE but to a lesser extent | more full-length SHEL was evident compared with controls | more full-length SHEL was evident compared with controls | 
N-VVGSPSAQDEASPLS-C (listed as Homo sapiens) [S-GAL, reference compound] |  | did not show any significant or consistent inhibition | did not show any significant or consistent inhibition | some inhibition could be seen | consistently inhibited; also recorded: significant and reproducible inhibition was seen | did not show any significant or consistent inhibition | did not show any significant or consistent inhibition | 
